Literature values in PMC9760969.

Target: CD95L (Homo sapiens) (UniProt P48023)
UniProt P48023, sequence (P48023 130-281): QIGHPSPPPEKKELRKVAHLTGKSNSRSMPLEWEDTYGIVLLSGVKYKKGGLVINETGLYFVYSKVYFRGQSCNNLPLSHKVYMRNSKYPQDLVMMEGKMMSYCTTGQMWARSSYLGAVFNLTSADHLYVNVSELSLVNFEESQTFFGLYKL

In the case of DR5 (from UniProt O14763), the Kd is listed as 1.23 pM.
